Experiment [1] concerns the target F1G2 peptide (XGVECK-biotin with X = Phe). Kind of experiment: SPR; KD for the Phe peptide divided by KD for the Phe peptide.
The target is the same in experiment [2]. The experiment can be described thus: SPR; KD for the Phe peptide divided by KD for the Trp peptide.
The target is the same in experiment [3]. The experiment can be described thus: SPR; KD for the Phe peptide divided by KD for the Tyr peptide. On the technique in general: SPR reads the build-up and loss of mass on a sensor chip optically.
For experiment [4], the target named is W1G2 peptide (XGVECK-biotin with X = Trp). The experiment can be described thus: SPR; KD for the Trp peptide divided by KD for the Phe peptide.
The target is the same in experiment [5]. Kind of experiment: SPR; KD for the Trp peptide divided by KD for the Trp peptide.
For experiment [6] the target is unchanged. Kind of experiment: SPR; KD for the Trp peptide divided by KD for the Tyr peptide.
Experiment [7] has as its target Y1G2 peptide (XGVECK-biotin with X = Tyr). The experiment can be described thus: SPR; KD for the Tyr peptide divided by KD for the Phe peptide.
Experiment [8] shares this target. Kind of experiment: SPR; KD for the Tyr peptide divided by KD for the Trp peptide.
For experiment [9] the target is unchanged. Kind of experiment: SPR; KD for the Tyr peptide divided by KD for the Tyr peptide.
Experiment [10] deals with F1G2 peptide (XGVECK-biotin with X = Phe). Kind of experiment: SPR dissociation curves; biotinylated peptide on streptavidin chip.
The target of experiment [11] is W1G2 peptide (XGVECK-biotin with X = Trp). The experiment is described as above.
Experiment [12] deals with Y1G2 peptide (XGVECK-biotin with X = Tyr). The description is as above.
The target in experiment [13] is F1G2 peptide (XGVECK-biotin with X = Phe). The experiment can be described thus: SPR, steady state; biotinylated peptide on streptavidin chip, protein in solution.
In experiment [14] the target is W1G2 peptide (XGVECK-biotin with X = Trp). Described as above.
For experiment [15], the target named is Y1G2 peptide (XGVECK-biotin with X = Tyr). Described as above.

B1: A. tumefaciens ClpS2 [Pro34 Arg35 Glu36], wild-type, expressed in and purified from E. coli (protein)
chain: MGHHHHHHENLYFQGSDSPVDLKPKPKVKPKLERPKLYKVMLLNDDYTPREFVTVVLKAVFRMSEDTGRRVMMTAHRFGSAVVVVCERDIAETKAKEATDLGKEAGFPLMFTTEPEE
Broadly, the koff is a measure of how fast the partners let go of each other. Low readings indicate a long-lived complex, high ones a short-lived complex. In general, Kd refers to the concentration at which binding is half-saturated. The low end stands for higher affinity, the high end for lower affinity. Molecule B1 returned a Selectivity for Phe, Phe/Phe in [1] of 1. The molecule also returned a Selectivity for Phe, Phe/Trp in [2] of 0.71. In experiment [3], this molecule showed a Selectivity for Phe, Phe/Tyr of 0.21. The molecule also showed a Selectivity for Trp, Trp/Phe in experiment [4] of 1.42. This molecule also had a Selectivity for Trp, Trp/Trp in experiment [5] of 1. For the same molecule, the Selectivity for Trp, Trp/Tyr in [6] is 0.29. Further, the Selectivity for Tyr, Tyr/Phe in [7] was 4.86. In experiment [8], this molecule yielded a Selectivity for Tyr, Tyr/Trp of 3.43. Also, the Selectivity for Tyr, Tyr/Tyr in [9] came out at 1. The koff worked out at 0.93 s⁻¹ in experiment [10], 1.32 s⁻¹ in experiment [11] and 1.16 s⁻¹ in [12]. In addition, the Kd amounted to 13 µM in experiment [13], 18.4 µM in [14] and 63 µM in experiment [15].

(Values after patent publication US20220315628A1.)
